Reference: the DeepSol protein solubility set

Test: soluble on expression in E. coli; label from the status in PepcDB or PDB records

Row | Sequence | soluble on expression in E. coli
1 | MTETLDHMDQSKIDHQKLAQQLLAQAKAEGVELVGPNGLLNQLTANVLETALEAEMDEHLGYEKHHVTGRNRENSRNGRRTKTVLTEIGPVQIQVPRDTDASFDPQIVKKRQRRLTGVDEIILSLSAKGLTTGEIAAHFDDVYGASVSKETISKITDKVLTEMAEWSVRPLDPVYPVLFIDAIHVKIRDGQVANRPVYVAIGVTTAGEREILGLWAGDGGEGAKFWLAVLTEIRNRGVADVCIAVCDGLKGLPDAITTVWPLTVVQTCLIHLLRNTFRYASRQYWDEMSRDLRPIYTAVNEAAAKEQFTEFADKWGPRYPAIVRLWESAWSEFVPFLDYDPEIRRVICSTNAIESLNARYRRAVRARGHFPSEQAALKCLYLATRSLDPTGKGRARWVTRWKPALNAFAITFEGRITPTVI | not soluble
2 | MSSHHHHHHSSGLVPRGSHMASMSDSEVNQEAKPEVKPEVKPETHINLKVSDGSSEIFFKIKKTTPLRRLMEAFAKRQGKEMDSLRFLYDGIRIQADQTPEDLDMEDNDIIEAHREQIGGSLMIIENSHVKKDDIWPSGGQMTVKDLTAKYTEGGNAILENISFSISPGQRVGLLGRTGSGKSTLLSAFLRLLNTEGEIQIDGVSWDSITLQQWRKAFGVIPQKVFIFSGTFRKNLDPYEQWSDQEIWKVADEVGLRSVIEQFPGKLDFVLVDGGCVLSHGHKQLMCLARSVLSKAKILLLDQPSAHLDPVTYQIIRRTLKQAFADCTVILCEHRIEAMLECQQFLVIEENKVRQYDSIQKLLNERSLFRQAISPSDRVKLFPHRNSSK | soluble
3 | MHLYDKRPGGGASFSQILGQAKNRQGIFFNTTFAVMGHVAKASGRVTETDIRIATLLMDQMRLTGDARKEAQQAFREGKEPDFDLCSSLQAFRAVTQGRQELVQMFIEIQIQTALSDGELDAAEHAILMTVAQELGYGRLEHHHHHH | not soluble
4 | MSVDVKSDFSENESSSTPSPTTVPADVTWPHYPMMPFMQPHPLREKMLQPTFDPQIYGRWSQMGDTGFYGHPDLYPFGLPQLAANGQIPAVEAVDVKPPLSNGSSSSDSGMYPSPSDMMTPFPSTSSGAASSSELSAAAAAAANYQMRAATCYQQSVWPFMDYQQFQGFSWKMPLGNNHGKDRRSSSDGKTLPTGPGTNNVRVRTADKYRMVYSDYQRLELEKEFHTSPFITSDRKSQLSTMLSLTERQIKIWFQNRRAKDRRDKQKIRL | not soluble
5 | MFKPELLSPAGTLKNMRYAFAYGADAVYAGQPRYSLRVRNNDFKMENLATGIEEAHALGKKLYVVSNIAPHNAKLKTYIKDMEPVVAMKPDALIMSDPGLIMMVREAFPEQVVHLSVQANAINWASVKFWQTQGIKRVILSRELSLDEIEEIRQRCPDIELEVFVHGALCMAYSGRCLLSGYINKRDPNQGTCTNACRWKYDVHEAQQTDSGDIIATPNAVQIETPTTLGAGAPTEQIFLLQEANRPGEYMPAFEDEHGTYIMNSKDLRAIQHVERLAKMGIDSLKIEGRTKSFYYVARTAQLYRQAIDDAASGKSFDRSLMNQLEGLAHRGYTEGFLRRHVHDEYQNYDYGYSVSDTQQFVGELTGKRNLAGLAEIEVKNKFSVGDSVELMTPQGNISLTIEQLENRKAEAVEAGLGSGHSVYLPVPKEVDLNHGILLRNLPQGQDTRNPHEAG | not soluble
6 | SLDAEKQLANITMGLPLSPAADSARSARHALSLIATARPPAFITTIAKEVHRHTALAANTQSQQSIHTTTLARAKGEILRVIEILIEKMPTDVVDLLVEVMDIIMYCLEGSLVKKKGLQECFPAICRFYMVSYYERSHRIAVGARHGSVALYDIRTGKCQTIHGHKGPITAVSFAPDGRYLATYSNTDSHISFWQMNTSLLGSIGMLNSAPQLRCIKTYQVPPVQPASPGSHNALKLARLIWTSNRNVILMAHDGKEHRFMV | soluble
7 | MSLKRTVDFSMFRCPLCDSSMDAASGKSLICTERGHTFDLSRHGYVNFLTKPVKTSYGAELFEARSRLIGECGFFDPLHDAIAELISHPKSGHEAFTILDSGCGEGSHLNALCGFDYAGKAAIGTGIDLSKDGILKASKAFKDLMWAVADVARAPFHDRQFDVVLSIFSPSNYAEFHRLLKNDGMLIKVVPRSDYLIELRQFLYTDSPRRTYSNTAAVERFTANAAHSRPVRLRYVKTLDQQAIHWLLKMTPLAWSAPKDRVSLLKEMKSADITVDVDILIGMKEGHHHHHH | soluble
8 | MTKEEIIKPENLVYKKPTLMNDNPMHYCPGCSHGVVHKLIAEVIEEMGMEDKAIGVSPVGCAVFAYNYLDIDWQEAAHGRAPAVATAIKRLWPGRLVFTYQGDGDLACIGTAETIHALNRGENITIIFINNAIYGMTGGQMAPTTLVGMKTATCPYGRDVAIHGYPLKMTEIAATLEGTAYVTRQAVHTVPAIRKAKKAIRKAFENSMNGKGSNLVEIVSTCNSGWKMTPQASNDWMVEHMFPFYPLGDLKDKE | not soluble
9 | MDQKSTTCLEALAKLSQQREHQTTPATLCSSEHFFANETIYSDATFLSTTEEAFISSPSSSTQGPKPGLKRVSTGPMTRILEGCQNDKPNSPELERVEEAEDNYSGTSSEEAFSQGIPYPHQVGGHGALSSFERGRVLKPAAKKEIDFYNFIYSDNLPSELEWLRTVTPKYFGQRKTQAKAKRILENQVTPFSQTSSVPVNTVLHIDRKDSERNIWKDQVGELVMDTNPWARACLLKELQKEDEVKSFIILEDLTCHLKKPCVLDCKMGTRHYDDDATEEKKKAHIEKATKTTSSSTGIRFTGMQVYKLPSHTFLFHDKYYGRQLKSHELKNELFEFFHNGVLLRVDIIEQFLSKLQWLYQHLENQHYFNFYSSSLLFVYEGDEMATCPISDVRMIDFAHTQRCVEEQQNDGYLFGLSNLIHLMKSLLEDERNEMR | soluble
10 | MGSDKIHHHHHHMFKLVSEFEPTGDQPQAIEKLVEGLNRGMRFQTLLGVTGSGKTFTMANVIARVNRPALVISPNKTLAAQLYQEFKTFFPENRVEFFISYYDYYQPEAYIPTKDLYIEKNADINDVIVRMRMSTLKSVRTRRDVVVVASVSCIYATGDPNDFDRMNINLAVGDRIDVLELAERLARIGYQRTEDVSLSGCFRLKGDTVEIYPTYQDEGIRIEFFGDEVDSITLIDRFNRTTLEHLDKIIIYPAVEFITTEEKLKRAVESIREELNERLSELKKQGKILEYERLKQRTLNDIELLETMGYCPGIENYSRHFDGRKPGEPPYTLLDYFDKDFIVFIDESHITVPQLRAMYNGDRSRKKNLVEYGFRLPSAYDNRPLTFEEFLKKTGQIIFVSATPGDFELSISEQVVEQIIRPTGLVDPEVEVRPTAGQVDDLVNEIVKVKERGERALVTVLTKKTAELLSEHLTELGIRSLYLHSELDAIERVEVLKKLRRGDVDVVVGVNLLREGLDLPEVSLVAIMDADVEGFLRSETTLIQIIGRTARNVNGKVIMYADRITNAMKRAIEETNRRRRIQLEYNRKHGITPRSVIKPLEIEVFEQFMVKEEPERYGDTVKNIFEMKKTLSPEEYMAVLEEEMYRAASELRYEDAAALRDELFRIREEIKKKKGL | not soluble
11 | MSLSTKNHFIFPTYVQMYPYSKDRPFLKQVREKLRYYGYKWLYQKQCSQLVDFLNTETQWQSLFTQDYYRTNTILTTFCDKRFSASERLTAITENLRLAEEKMGRSLCQQLLDQQHIVLTQLTEDLRLSLSINHIDPFEGYFSINIRNQNNERVYDSSFTFLSPNKLLIASIQGPSSDNAQELVKQATKALHGMRPMFMLVNGFKMLAEKWQCELVGIPHKAQGKYRLSARSKILFNYDEFWQENQGEYRHNYWQLPLHIERKQLEDIASKKRSMYRKRYEMLDQMALDIQQLEGHHHHHH | soluble
12 | VTAEIRLYITEGEVEDYRVFLERLEQSGLEWRPATPEDADAVIVLAGLWGTRRDEILGAVDLARKSSKPIITVRPYGLENVPPELEAVSSEVVGWNPHCIRDALEDALDVI | soluble
13 | MGSDKIHHHHHHMIQIGKRYSLEVVKQVNFGVYLNAQELGQVLLPNKFVPTGCNVGDMVDVFLYLDSEDIVIATTQKSLAQVGEYAYLKVIATGPFGAFLDWGLDKDLLLPFGEQHKPAEEGHSYLVYVHANHADERIMASSKLDKFVDKTEAHYTEGEQVNLIIGGTTELGYKAIINNLHWGVIYANEVFQKLRFGQKVTGYIKTMRSDGKIDLVLQKGDKDELDKNARLIINKLRSANGFLPLHDKTDADVIYDKLGMSKKAFKKSIGGLFKAGEITIESEGIRLTV | not soluble
14 | MVELFGAVLLLFGLSDLLFRFLGLGAYAHGSRREPKVALTFDDGPSERTEALLALLARHGVKATFFLTGEKARARPDLVEAIKRAGHQVEDHGEWHRPLWLFLPWVEWRHMAQNPGRYYRPPYGLHTPFTRLFARLLGKRVVLWDLESKDWLNLPPEELAERLLFYLRPGSIVLFHDGPERTLRLLGAGPAGDAPPGVPAHHPGRPRPFAPHPEARPHPGPPGV | soluble
15 | MAEHRGGSGNFAENREKASEAGRKGGQHSGGNFKNDPQRASEAGKKGGQNSHGGRKSDNS | not soluble
16 | SPLDRDPAFRVITVTKETGLGLKILGGINRNEGPLVYIHEVIPGGDCYKDGRLKPGDQLVSINKESMIGVSFEEAKSIITRAKLRSESPWEIAFIR | soluble
17 | MGSDKIHHHHHHMPAISVQDVSKRFRVFAKPADRLKAAVRHRIGGLAKLVPARLLGTEGASEFHALQHVSFHVQKGETIGIIGRNGSGKSTLLQIICGTLTPSGGRVAINGRVAALLELGAGFNPEFTGRENVYMNAALLGLSKAQIEERLDAIFAFADIGGFVDQPVKTYSSGMYVRLAFAVIAHVDADVLVIDEALAVGDAFFTQKCMRFLRAFMERGTVLFVSHDTNAVVNLCTRVVWLDKGRVREIGPAKDVCDSYLEAFYEEQHCASGRSVRALERSSVVRAIAEGDMRDQRALLINASKLRNDVELFQFTADAKNFGLGGASIEHVGIEDGTGAPLNWVVGGEIVCIRIAVKALQNLERAIVGFIVRDRLGQNLFGDNTYLTTLNEPFAVAAGESFSVRFGFRMPVLPVGDYSVTVAVADGSQSDHVIHQWLHDAVLLKSHSTSVSTGLIGIPMHEIVLERDTLNEVGAAQ | not soluble
18 | MSTAVIVSRPPSQTASFHGPQHPNRCSFSSSSSESIPPTTGRAKGSSDFEELEIRIDKALKERDAEWRKHEKSQIQFLQNETSNMLKSLHNEINRLGNELREEKRKTLHGDDDSADKIAELEKVITEKEAYTKNLEKKVSTTIQKLQEQITIQSDRIRQLNEELSDRNQTVTHLSQQLRAIKLREAMATSQHRRRASSQLSTTSSPPMTSPSSPHRIFPPVSSGLLSASVAVTYPGNSRISIQKRSTSAMRAPTMPN | not soluble
19 | MGKEYHVAVVGATGAVGTRMIELLAETSLPIASVRLLASKRSAGQEIQFKGQPLIVEELVPESFEGIDLALFSAGGSISEKFAPEAVKRGAVVVDNTSHFRMAKDVPLVVPEVNPEALKNHQGIIANPNCSTIQMMVALEPIRQAFGLERIIVSTYQAVSGAGIRAINELKEQAEDFLEGKPVSEWSAEILPAGSDEKHYPIAFNALPQIDVFSEAGYTYEEWKMMNETKKIMGDNKLKVVATCVRIPVISGHSESVYIEVKQADASVSAIQELMAQAPGVILQDEPSEQLYPQALNSVNQKETFVGRIRQDVDVKNGFHLWIVSDNLLKGAAWNSVQIAETLHEMNLLRVPEND | not soluble
20 | MGSDKIHHHHHHMIRANRHKRVIAVCGKGGVGKTAFTAMLTRSLLESQKAGDLLVIDADPAMGLPNTLGIQVEKTIGHVRDLIINTARAGIGEDRVDLSSRLDYLVLETLYESDDYAFLAMGRTDSQGCFCSVNDLLKKSIRILSERFDTIVIDGEAGLEQMNRQVMNMVDLLIILSDTSTRGLQTVEHITKMVTEDHVIDCTQLGVVFNRVINNELLLTQAAERIGIEVFGMVPQDQSIVHYDLIGQPLTELPADSLALSAIRDFVANHIVQLDCR | not soluble
21 | GKSDKIIPIAENKEAKAKYDILETYEAGIVLKGSEVKSLREKGTVSFKDSFVRIENGEAWLYNLYIAPYKHATIENHDPLRKRKLLLHKREIMRLYGKVQEKGYTIIPLKLYWKNNKVKVLIALAKGKKLYDRRRELKEKAMKRELEREFKGKIHL | soluble
